Here are results for 3 molecules from article doi:10.1101/2023.08.16.553474.

Among the targets are MYCN 1-154 (UniProt P04198 1-154); MYCN FL (UniProt P04198 1-464); MYCN 1-154 dMBII (UniProt P04198 1-154, del111-134).
Holding throughout (test): fluorescence anisotropy

B1: 62 RNA (ssRNA)
RNA: UGGGCCUGGAAUAGUGGGGGCCCAGGGGAAGCUGCGAUGUGCUUCUGAGUGUUUGGAACGAG
Take B1: in the series with MYCN 1-154, the binding result is recorded as “binds”.

B2: UGlow RNA (ssRNA)
RNA: ACAGUCCAGUCGCAGCAGACUCCCUCACAGCACCCACCUCUCCCACAAUCGGAUCCCAGG
B2: binding in the series with MYCN FL was characterised by a dissociation constant (Kd) of 511 nM.

B3: UGhigh RNA (ssRNA)
RNA: UGCUGGGAUGGUCAUGGUGGGUGACCCUGGGAUGGCCGCGGUGGGUGACCCUGGAAUGGU
Consider B3, for which the binding result in the series with MYCN 1-154 dMBII was “binds”. In addition, the Kd with MYCN FL is 175 nM.
